# T1: CD20 (human, UniProt P11836 1-297)
# T1 chain: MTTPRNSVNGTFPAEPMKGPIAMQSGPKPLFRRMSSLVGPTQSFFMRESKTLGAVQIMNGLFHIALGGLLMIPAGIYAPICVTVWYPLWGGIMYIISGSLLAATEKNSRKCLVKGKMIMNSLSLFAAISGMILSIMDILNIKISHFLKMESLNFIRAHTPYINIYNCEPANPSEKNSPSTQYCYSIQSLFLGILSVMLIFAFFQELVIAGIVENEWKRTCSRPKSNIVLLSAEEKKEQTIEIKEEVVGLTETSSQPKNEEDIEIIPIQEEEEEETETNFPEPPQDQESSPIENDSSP
# Target: T1, CD20
# Assay: FACS binding; Ramos cells
binder,measurement,value
Rituximab (antibody) chain 1: not shown chain 2: QIVLSQSPAILSASPGEKVTMTCRASSSVSYIHWFQQKPGSSPKPWIYATSNLASGVPVRFSGSGSGTSYSLTISRVEAEDAATYYCQQWTSNPPTFGGGTKLEIKRTVAAPSVFIFPPSDEQLKSGTASVVCLLNNFYPREAKVQWKVDNALQSGNSQESVTEQDSKDSTYSLSSTLTLSKADYEKHKVYACEVTHQGLSSPVTKSFNRGEC,EC50,1.13 µg/mL

# From patent US20160280794A1 (published 2016)
